# Experimental data from patent US20040214902A1.
# No end group written: not given here. *: point of attachment. 6FAM = O=C1OC2(c3ccc(O)cc3Oc3cc(O)ccc32)c2cc(C(=O)*)ccc21
# Target: 46-kDa soluble recombinant GST-fused Bcl-2 protein (Santa Cruz Biotechnology) (human) (UniProt P10415)
# Test: fluorescence polarization saturation binding
binder,measurement,value
6FAM-NLWAAQRYGRELRRMSDEFVDSFKK,Kd,6.9 nM
